Assay results: paper PMC5969902
Values joined by “and” are separate entries in the source; they are usually repeats but may differ in a detail not shown here. Identical values can stand only once.

Key:
[1] = target: actin filament barbed ends elongating from unlabeled rabbit skeletal muscle actin (rabbit) (UniProt P68135); experiment: single-filament microfluidics with fluorescence microscopy; survival of formin-bound barbed ends, exponential fit; 3 µM unlabeled actin, 5 µM profilin; KCl and configuration not given
[2] = target: actin filament barbed ends elongating from unlabeled rabbit skeletal muscle actin (rabbit) (UniProt P68135); experiment: single-filament microfluidics with fluorescence microscopy; survival of formin-bound barbed ends, exponential fit; 1 µM unlabeled actin, no profilin; KCl and configuration not given
[3] = target: actin filament barbed ends elongating from unlabeled rabbit skeletal muscle actin (rabbit) (UniProt P68135); experiment: single-filament microfluidics with fluorescence microscopy; survival of formin-bound barbed ends, exponential fit; 1 µM unlabeled actin, 5 µM profilin; KCl and configuration not given
[4] = target: actin filament barbed ends elongating from unlabeled rabbit skeletal muscle actin (rabbit) (UniProt P68135); experiment: single-filament microfluidics with fluorescence microscopy; survival of formin-bound barbed ends, exponential fit; 2 µM unlabeled actin, 10 µM profilin; KCl and configuration not given
[5] = target: actin filament barbed ends elongating from unlabeled rabbit skeletal muscle actin (rabbit) (UniProt P68135); experiment: single-filament microfluidics with fluorescence microscopy; survival of formin-bound barbed ends, exponential fit; 0.5 µM unlabeled actin, no profilin; KCl and configuration not given
[6] = target: actin filament barbed ends elongating from unlabeled rabbit skeletal muscle actin (rabbit) (UniProt P68135); experiment: single-filament microfluidics with fluorescence microscopy; survival of formin-bound barbed ends, exponential fit; 2 µM unlabeled actin, 5 µM profilin; KCl and configuration not given
[7] = target: actin filament barbed ends elongating from unlabeled rabbit skeletal muscle actin (rabbit) (UniProt P68135); experiment: single-filament microfluidics with fluorescence microscopy; survival of formin-bound barbed ends, exponential fit; 1 µM unlabeled actin, 10 µM profilin; KCl and configuration not given
[8] = target: actin filament barbed ends elongating from unlabeled rabbit skeletal muscle actin (rabbit) (UniProt P68135); experiment: single-filament microfluidics with fluorescence microscopy; survival of formin-bound barbed ends, exponential fit; 3 µM unlabeled actin, 10 µM profilin; KCl and configuration not given
mDia1 FH1 = mDia1 FH1 (UniProt O08808); conditions: cited from earlier work

profilin, sequence (P07274 whole entry): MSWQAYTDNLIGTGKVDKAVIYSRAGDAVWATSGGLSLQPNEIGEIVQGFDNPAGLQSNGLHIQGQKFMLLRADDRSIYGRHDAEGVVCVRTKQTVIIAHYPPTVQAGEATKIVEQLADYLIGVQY

Substance | koff [1] | koff [2] | koff [3] | koff [4] [s⁻¹] | koff [5] [s⁻¹] | koff [6] [s⁻¹] | koff [7] | koff [8] [s⁻¹] | Kd (mDia1 FH1) [µM]
mDia1(FH2-DAD) (from UniProt O08808 1-1255) (domain or fragment) | 0.0063 s⁻¹ and 0.0085 s⁻¹ | 0.0047 s⁻¹ and 0.0089 s⁻¹ | 0.0031 s⁻¹ and 0.0025 s⁻¹ and 0.0051 s⁻¹ | 0.00226 | 0.004 | 0.0042 | 0.0025 s⁻¹ and 0.0036 s⁻¹ | 0.0064 | 
profilin (from UniProt P07274) |  |  |  |  |  |  |  |  | > 100
